Two molecules from article PMC12810918 can be followed below.

Data set [1] relates to N=C(N)NCCC[C@H](N)C(=O)O. As to the kind of experiment: purified protein. The conditions noted are these: 40 mM Hepes pH 7.0, 0-20 mM arginine.
Substrate in data set [2]: N=C(N)NCCC[C@H](N)C(=O)O
As to the kind of experiment: colorimetric determination of citrulline formation. The conditions noted are these: 40 mM Hepes pH 7.0, 0-20 mM arginine. It is filed as biochemical, Giardia duodenalis. An excerpt: colorimetric determination of citrulline formation on ADIB (recombinant ADI, assemblage B, isolate GS) | recombinantly expressed ADIAI, ADIAII and ADIB in bacteria and determined the Km values

A word on the Km: it is the substrate concentration at which the rate is half of its maximum. For “ADIE (recombinant ADI, assemblage E, isolate P15) (Giardia lamblia P15)”, the Michaelis-Menten constant (Km) in data set [1] stood at 340 ± 30 µM.

B1: ADIB (recombinant ADI, assemblage B, isolate GS) (Giardia duodenalis ATCC 50581) (protein)
chain: MTDFTKDKEKLAQATQGGETERAEIVVVHLPQGTSFLTSLNPEGNLLEESMCPDELKRDHEGFQAILKEKGCRVYMPYDVLSEASPAEREVLMDQAMASLKYEFHPSGARITPKMKYCVSDEYKRKVLSALSNRNLVDVILSEPVIHLIPGVRNTALVTKSVEIHDSNNMVFMRDQQITTRRGVVMGQFQAPQRRREQVFALIFWKRLGVRVVGDCREGGPHCMLEGGDFIPASPGLTMMGVGLRSTYVGARYLMSKDLLGTRRFAVVKDCFDQHQDRMHLDCTCSIIHDKLVVLDEYICSGMGLRYVDEWIDIGAEAAKKAKSSAVICGTYALVKANVEFQQWLDENGYTIIRIPHEYQLAYGCNNLNLGNNCVLSVHQPTIDFIKASPAYISYCKSHNLSNGLDLVYVPFRGITRMYGSLHCASQVIYRTPATPATVKACEQEGDGLAAIYEKNGEPVDAAGKNFDCVLYIPSTVDDLVDSLGISLGDDVAPSREIIADVHKLYQKLISEGRVPYITWRMPSMPVVSLKGAARAGSLKAILDKIPQLPSFTPKVVDGAPAAYTRYLGLEQADICIDIS
A word on the kcat: it is the maximal rate divided by the concentration of active sites. Consider B1, for which, in data set [2], the Km turned out to be 360 ± 20 µM and the kcat came out at 1.99 ± 0.16 s⁻¹.
